According to patent publication US20120283184A1 (published 2012):
Substitutions are numbered along the chain they refer to.

How the values were obtained:
[1] = molecular target: Flk-1-Fc (mouse vascular endothelial growth factor receptor-2 Fc chimera) (mouse) (UniProt P35918); assay: radioactive equilibrium binding assay, % bound at 1 nM Flk-1-Fc
[2] = molecular target: T1, Flk-1-Fc (mouse vascular endothelial growth factor receptor-2 Fc chimera) (mouse, UniProt P35918 20-762); assay: as above
T1 construct: Bought from R&D Systems; also called mouse VEGFR-2-Fc; Fc part of the bought chimera not given
Protocol: To prepare ³⁵S-labeled binding proteins for analysis, mRNA was prepared as described above for RNA-protein fusion production but the linker ligation step was omitted. The mRNA was expressed using rabbit reticulocyte lysate translation kit (Ambion) in the presence of ³⁵S-labeled Met at 30° C. for 1 hour. Expressed protein was purified on M2-agarose Flag beads (Sigma) as described above. This procedure produced the encoded protein without the nucleic acid tail. In a direct binding assay, VEGF-R2-Fc fusions in concentrations ranging from 0 to 200 nM were added to a constant concentration of the purified protein (0.2 or 0.5 nM) and incubated at 30° C. for 1 hour in buffer B. The receptor-binder complexes were captured using Protein A magnetic beads for another 10 minutes at room temperature using a Kingfisher™ The beads were washed with six reaction volumes of buffer B. The protein was eluted from the beads with 100 μL of 0.1 M KOH. 50 μL of the reaction mixture and elution were dried onto a LumaPlate-96 (Packard) and the amount of ³⁵S on the plate was measured using a TopCount NXT instrument (Packard). The amount of fibronectin-based scaffold protein bound to the target was estimated as a percent of radioactivity eluted from Protein A magnetic beads compare to radioactivity in the reaction mixture. Nonspecific binding of fibronectin-based scaffold proteins to the beads was determined by measuring binding in the absence of KDR-Fc and represented less than 1-2% of the input. Specific binding was obtained through subtraction of nonspecific binding from total binding. Data was analyzed using the GraphPad Prizm software (GraphPad Software, Inc, San Diego, Calif.), fitted using a one site, non-linear binding equation.

[3] = molecular target: T2, Flk-1-Fc (mouse vascular endothelial growth factor receptor-2 Fc chimera) (mouse, UniProt P35918 20-762); assay: method not given
T2 construct: Purchased from R&D Systems; also called mouse VEGF-R2-Fc; not shown: Fc part of the purchased chimera

Sequence of Flk-1-Fc (mouse vascular endothelial growth factor receptor-2 Fc chimera) (mouse) (P35918 20-762, change not shown): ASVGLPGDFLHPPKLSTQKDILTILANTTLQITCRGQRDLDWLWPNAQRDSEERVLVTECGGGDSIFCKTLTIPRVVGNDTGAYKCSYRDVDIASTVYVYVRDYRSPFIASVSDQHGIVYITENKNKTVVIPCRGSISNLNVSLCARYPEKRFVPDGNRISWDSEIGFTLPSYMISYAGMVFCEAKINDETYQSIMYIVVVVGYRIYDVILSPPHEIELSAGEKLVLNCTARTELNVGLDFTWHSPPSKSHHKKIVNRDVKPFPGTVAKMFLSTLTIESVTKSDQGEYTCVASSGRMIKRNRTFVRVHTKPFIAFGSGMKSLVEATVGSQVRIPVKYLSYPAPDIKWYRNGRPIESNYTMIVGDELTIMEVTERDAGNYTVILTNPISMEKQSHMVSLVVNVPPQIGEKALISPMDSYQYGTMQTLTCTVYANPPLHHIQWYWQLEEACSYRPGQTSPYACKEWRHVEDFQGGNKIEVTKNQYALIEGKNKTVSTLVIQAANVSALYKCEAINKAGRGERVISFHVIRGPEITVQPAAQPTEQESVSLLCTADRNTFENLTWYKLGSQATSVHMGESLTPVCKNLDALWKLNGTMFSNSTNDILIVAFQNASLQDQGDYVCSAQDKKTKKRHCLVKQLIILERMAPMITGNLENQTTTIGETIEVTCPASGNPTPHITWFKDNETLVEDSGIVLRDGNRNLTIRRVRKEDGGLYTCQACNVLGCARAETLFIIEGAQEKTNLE

B1: EGE11 (SEQ ID NO: 87) (designed binder)
chain: EVVAATPTSLLISWRHPHFPTRYYRITYGETGGNSPVQEFTVPLQPPTATISGLKPGVDYTITGYAVTMGKNDRELLTPISINYRT
Binding to 1 nM Flk-1, % [1]: 1%

B2: F12 (designed binder)
chain: B1 chain with M69D, K71R, D73G, R74H, L77M
notes: 10Fn3 clone, Del 1-8
Binding to 1 nM Flk-1, % [2]: 1%

B3: G1 (designed binder)
chain: B1 chain with M69E, K71R, D73G, L77M, T78V
notes: 10Fn3 clone, Del 1-8
Binding to 1 nM Flk-1, % [2]: 2%

B4: B12 (designed binder)
chain: B1 chain with M69V, G70E, K71R, D73G, L77R
notes: 10Fn3 clone, Del 1-8
Binding to 1 nM Flk-1, % [2]: 21%

B5: 159Q(8)L (designed binder)
chain: VSDVPRDLEVVAATPTSLLISWRHPHFPTRYYRITYGETGGNSPVQEFTVPLQPPAATISGLKPGVDYTITGYAVTMAQSGHELFTPISINYRT
notes: also called clone 159
Kd [3]: > 3000 nM
